Biological target: CD19 (UniProt P15391)
Experiment: cell-based or functional assay

Question: How did the total cell increase after 2 rounds of stimulation with irradiated CD19-expressing NIH3T3 cells turn out when “CD19R:CD28:z(CO) CAR containing the 2 point mutations, L235E and N297Q, in the CH2 portion of the IgG4 spacer (CD19R(EQ)), expressed on CMV/CAR T cells” was run?
Answer: Its total cell increase after 2 rounds of stimulation with irradiated CD19-expressing NIH3T3 cells is 120 to 150 fold.
